Experimental data from the nanobody polyreactivity screen of Harvey et al. (2022).

experiment: yeast display, Sf9 membrane polyspecificity reagent, FACS + sequencing; frameworks hold sequencing errors
How it was run: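 A synthetic nanobody library was expressed on Saccharomyces cerevisiae BJ5465 by galactose induction for 36–48 hours. The library was stained for 1 hour at 4 °C with 10% biotinylated, detergent-solubilized Sf9 membrane reagent and enriched with streptavidin microbeads before FACS. Low and high (top ~1%) gates were set on anti-HA fluorescence for expression and streptavidin fluorescence for reagent binding, and each polyreactivity label reflects the gate of origin.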

Sequence	polyreactivity (PSR sort gate)
QVQLVESGGGLVQAGGSLRLSCAASGSTFYIYAMGWYRQAPGKERELVAAITWSGGRTFYADSVKGRFTISRDNAKNTVYLHMNSLKPEDTAVYFCSARFWSDKTGSRYYYWGQGTQVTVSS	high polyreactivity
QVQLVESGGGLVQAGGSLRLSCAASGSTFYKYAMGWYRPAPGKERELVAAISRGGSTYYADSVKGRFTISRDNAKNTVYLQMNSLKPEDTAVYYCAALYGLGRPQDSTFLFDYWGQGTQVTVSS	low polyreactivity
QVQLVESGGGLVQAGGSLRLSCAASGSTFYLNAMGWYRQAPGKERELVAAINGSGGSTYADSVKGRFTISRDNAKNTVYLQMNSLKPEDTAVYYCAADGTGYPGYSYPGNDYDYWGQGTQVTVSS	low polyreactivity
QVQLVESGGGLVQAGGSLRLSCAASGSTFYLNAMGWYRQAPGKERELVAAITVSGGSTYYADSVKGRFTISRDNAKNTVYLQMNSLKPEDTAVYYCARELLSPTYPRWYYYWGQGTQVTVSS	low polyreactivity
QVQLVESGGGLVQAGGSLRLSCAASGSTFYLNDMGWYRQAPGKERELVAAIDWSGGSTYYADSVKGRFTISRDNAKNTVYLQMNSLNPEDTAVYYCAARLVYEWRRLDYFIAWDYWGQGTQVTVSS	low polyreactivity
QVQLVESGGGLVQAGGSLRLSCAASGSTFYLYAMGWYRQAPGKERELVADISWDGDSTYYADSVKGRFTISRDNAKNTVYLQMNSLKPEDTAVYYCAADYFYYYEQYLWYTYDYWGQGTQVTVSS	high polyreactivity
QVQLVESGGGLVQAGGSLRLSCAASGSTFYLYAMGWYRQAPGKERELVASITYSGASTYYADSVKGRFTISRDNAKNTVYLQMNSQKPEDTAVYYCAADQRGWFAVGSQRKYNYWGQGTQVTVSS	low polyreactivity
QVQLVESGGGLVQAGGSLRLSCAASGSTFYLYGMGWYRQAPGKERELVAAITYSGGSTYYADSVKGRFTISRDNAKNTVYLQMNSLKPEDTAVYYCNARSQWRSSRFYYWGQGTQVTVPS	high polyreactivity
QVQLVESGGGLVQAGGSLRLSCAASGSTFYNAMGWYIQAPGKERELVAGISRNGGSTRYADSVKGRFTISRDNAKNTVYLQSHSQKPEDTAVSYCAAGYYDYGWDYANDYWGQGTQVTVSS	low polyreactivity
QVQLVESGGGLVQAGGSLRLSCAASGSTFYNYAMGWCRLAPGKERELVAATSSGGSTNYADSVKGRFTISRDNAKNTVFLQMISLKPEDNAVYYCARRHRVYPSRIGHDYWGQGTQVTVSS	low polyreactivity
QVQLVESGGGLVQAGGSLRLSCAASGSTFYNYAMGWYRQAPGKERELVAAISSGGGITYYADSVKGRFTISRDNAKNTVYLQMNSLKPEDTAVYYCNARRKYLGYNYWGQGSQVTVSS	high polyreactivity
QVQLVESGGGLVQAGGSLRLSCAASGSTFYNYAMGWYRQAPGKERELVAAISSGGGITYYADSVKGRFTISRDNAKNTVYLQMNSLKPEDTAVYYCNVVNYYPKGNNRAQYWFNYWGQGTQVNVSS	high polyreactivity
QVQLVESGGGLVQAGGSLRLSCAASGSTFYPNAMGWYRQAPGKEREFVAAITWSGGRTYYADSVKGRFTISRDNAKNTVYLLMNSLKPEDTAVYYCAVGGNSRRYWGQGTQVTVSS	high polyreactivity
QVQLVESGGGLVQAGGSLRLSCAASGSTFYPNAMGWYRQAPGKERELVAAISRGTRTKYADSVKGRFTISRDNAKNTVYLQMNSLKPEDTAVYYCAKRYYGSPQLRYYYWGQGTQVTVSS	high polyreactivity
QVQLVESGGGLVQAGGSLRLSCAASGSTFYPNAMGWYRQAPGKERELVAAISWSGGRTYYADSVKGRFTISRDNAKNTVYLQMNSLKPEDTAVYYCNAARYPSSWYYKLDYWGQGTQVTVSS	high polyreactivity
QVQLVESGGGLVQAGGSLRLSCAASGSTFYPYAMGGYRQAPGKERELVARITQNGGSTYYADSVKGRFKISRDNAKNPVYLQMNSLKPEDTAVYYCADRWISVLSYGKYDYCGQGTQVTVSS	high polyreactivity
QVQLVESGGGLVQAGGSLRLSCAASGSTFYPYAMGWYRQAPGKERELVAAISSGGSTNYADSVKGRFTISRDNAKNTVYLQMNSLKPEDTAVYYCAAEDWSLYDYGDRLWYSPYYYWGQGTQVTVSS	high polyreactivity
QVQLVESGGGLVQAGGSLRLSCAASGSTFYPYAMGWYRQAPGKERELVAAISSGGSTSYADSVKGRFTISRDNAKNTFYLQMNSLKPEDTAVYYCNASSPGAVPVYDYDYWGQGTQVTVSS	low polyreactivity
QVQLVESGGGLVQAGGSLRLSCAASGSTFYPYAMGWYRQAPGKERELVAAISSSGGSTYYADSVKGRFTISRDNAKNTVYLQMNSLKPEDTAVYYCNADVHSQYDYWGQGTQVTVSS	low polyreactivity
QVQLVESGGGLVQAGGSLRLSCAASGSTFYPYAMGWYRQATGKERELVAAISYSGGSKYYADSVKGRFTISRDNAKNTVYLQMNSLKPEDTAVYYCAAYYRVYGASYDYWGQVTQVTVSS	high polyreactivity

Sequence	polyreactivity (PSR sort gate)
QVQLVESGGGLVQAGGSLRLSCAASGSTFYPYTMGWYRQAPGKERELVASISTTGGSTNYADSVKGRFTISRDNAKNTVYLQMNSLKPEDTAVYYCAARSNYTRRLYYYYWGLGTQVTVSS	high polyreactivity
QVQLVESGGGLVQAGGSLRLSCAASGSTFYQNAMGWYRQAPGKERELVAAISGGSDTYYADSVKGRFTISRDNAKNTVYLQMNSLKPEDTAFYYCAADVASSEGKSWTLKDEYDYWGQGTQVTVSS	low polyreactivity
QVQLVESGGGLVQAGGSLRLSCAASGSTFYQSVMGWYRQAPGKERELVADITNGGSTYYADSVKGRFTISRDNAKNTVYLQMNSLKPEDTAVYYCAADGGYYWYTYWYGGLYYWGQGTQVTVSS	high polyreactivity
QVQLVESGGGLVQAGGSLRLSCAASGSTFYRNAMGWYRQAPGKEREFVAAISFRGGGTYADSVKGRFTISRDNAKNTVYLQMNSLKPEDTAVYYCAADYSVYWLDYGYWGQGTQVTVSS	low polyreactivity
QVQLVESGGGLVQAGGSLRLSCAASGSTFYRNAMGWYRQAPGKERELVAAISRGGSTYYADSVKGRFTISRDNAKNTVYLQMNSLKPEDTAVYYCNTDVNYAGYGWYYYWGQGTQVTVSS	high polyreactivity
QVQLVESGGGLVQAGGSLRLSCAASGSTFYRNAMGWYRQAPGKERELVAAITSGGSSTYYADSVKVRFTISRDNAKNTVYLQMNSLKPEDTAVYYCAAEPGIYYYWGQGTQVTVSS	low polyreactivity
QVQLVESGGGLVQAGGSLRLSCAASGSTFYRNAMGWYRQAPGKERELVATITFNGGSTYYADSVKGRFTISRDNAKNTVYLQMNSLKPEDTAVYYCNTDWRGDPELYDYWGQGTQVTVSS	low polyreactivity
QVQLVESGGGLVQAGGSLRLSCAASGSTFYRNAMGWYRQAPGKERELVAVITERGGNTYYADSVKGRFTISRDNAKNTVYLQMNSLKPEDTAVYYCNKQGFVDRGRYRYYWGQGTQVTVSS	high polyreactivity
QVQLVESGGGLVQAGGSLRLSCAASGSTFYRYAMGGYRPAPGKEREFVAAISGSGGSTRYADSVKGRFTISRDNAKNTVYLQMNSLKPEDTAVYYCAARSRYGYITFDYWGQGTQVTVSS	high polyreactivity
QVQLVESGGGLVQAGGSLRLSCAASGSTFYRYAMGWYRPAPGKERELVAAITSAGSTNYADSVKGRFTISRDNAKNTVYLQMNSLKPEDTAVYYCAKDLTRWGYNEYDYWGQGSQVTVSS	low polyreactivity
QVQLVESGGGLVQAGGSLRLSCAASGSTFYRYAMGWYRQAPGKEREFVAAISGSGGSTRYADSVKGRFTISRDNAKNTVYLQMNSLKPEDTAVYYCAARSRDGYITFDYWGQGTQVTVSS	high polyreactivity
QVQLVESGGGLVQAGGSLRLSCAASGSTFYRYAMGWYRQAPGKERELVAAISSDGTTYYADSVKGRFTISRDNAKNTVYLQMNCLNPVDTAVYYCAKERSRYYPYDYWGQGTQVTVSS	high polyreactivity
QVQLVESGGGLVQAGGSLRLSCAASGSTFYRYAMGWYRQAPGKERELVAAISSGGRTYYADSVKGRFTISRDNAKNTVYLQMNSLKPEDTAVYYCATSWTFRQGYNYWGQGTQVTVSS	high polyreactivity
QVQLVESGGGLVQAGGSLRLSCAASGSTFYRYAMGWYRQAPGKERELVAAISSSGGSTYYADSVKGRFTISRDNAKNTVYLQMNSLKPEDTAVYYCNADVHSQYDYWGQGTQVTVSS	low polyreactivity
QVQLVESGGGLVQAGGSLRLSCAASGSTFYRYAMGWYRQAPGKERELVAAISTRSGSTYYADSVKGRFTISRDNAKNTVYLQMNSLKPEDTAVYYCAADGHKKTARKYYYWGQGTEVTVSS	low polyreactivity
QVQLVESGGGLVQAGGSLRLSCAASGSTFYRYAMGWYRQAPGKERELVAAISWDGGRTYYADSVKGRFTISRDNAKNTVYLQMNSLKPEDTAVYYCNARSSQYLGRYDYWGQGTQVTVSS	high polyreactivity
QVQLVESGGGLVQAGGSLRLSCAASGSTFYRYAMGWYRQAPGKERELVARIRLSGTSTYYADSVKGRFTISRDNAKNTVYLQMNSLKPEDTAVYYCAAELYSRNWRSQYDYWGQGSQVTVSS	high polyreactivity
QVQLVESGGGLVQAGGSLRLSCAASGSTFYRYAMGWYRQAPGKERELVATIRSSGDSTNYADSVKGRFTISRDNAKNTVYLQMNSLKPEDTAVYYCAKYGKYTWRQGGYWGQGTQVTVSS	high polyreactivity
QVQLVESGGGLVQAGGSLRLSCAASGSTFYRYAMGWYRQAPGKETELVAAITWRGGSTYYADSVKGRFTISRDNAKNTVYLQMNSLKPEDTAVYYCAAAKYRRGTRYYYWGQCTQVTVSS	high polyreactivity
QVQLVESGGGLVQAGGSLRLSCAASGSTFYRYPMGWYRQAPGKEREFVAAISGSGGSTRYADSVKGRFTISRDNAKKTVYLQMNSLKPEDTAVYYCAARSRYGYITFDYWGQGTQVTVSS	high polyreactivity
